Reference: IntAct's records for PubMed 18571510

B1: Regulatory protein NPR1 (Arabidopsis thaliana (Mouse-ear cress)), P93002 (parent)
chain: MDTTIDGFADSYEISSTSFVATDNTDSSIVYLAAEQVLTGPDVSALQLLSNSFESVFDSPDDFYSDAKLVLSDGREVSFHRCVLSARSSFFKSALAAAKKEKDSNNTAAVKLELKEIAKDYEVGFDSVVTVLAYVYSSRVRPPPKGVSECADENCCHVACRPAVDFMLEVLYLAFIFKIPELITLYQRHLLDVVDKVVIEDTLVILKLANICGKACMKLLDRCKEIIVKSNVDMVSLEKSLPEELVKEIIDRRKELGLEVPKVKKHVSNVHKALDSDDIELVKLLLKEDHTNLDDACALHFAVAYCNVKTATDLLKLDLADVNHRNPRGYTVLHVAAMRKEPQLILSLLEKGASASEATLEGRTALMIAKQATMAVECNNIPEQCKHSLKGRLCVEILEQEDKREQIPRDVPPSFAVAADELKMTLLDLENRVALAQRLFPTEAQAAMEIAEMKGTCEFIVTSLEPDRLTGTKRTSPGVKIAPFRILEEHQSRLKALSKTVELGKRFFPRCSAVLDQIMNCEDLTQLACGEDDTAEKRLQKKQRYMEIQETLKKAFSEDNLELGNSSLTDSTSSTSKSTGGKRSNRKLSHRRR
partner: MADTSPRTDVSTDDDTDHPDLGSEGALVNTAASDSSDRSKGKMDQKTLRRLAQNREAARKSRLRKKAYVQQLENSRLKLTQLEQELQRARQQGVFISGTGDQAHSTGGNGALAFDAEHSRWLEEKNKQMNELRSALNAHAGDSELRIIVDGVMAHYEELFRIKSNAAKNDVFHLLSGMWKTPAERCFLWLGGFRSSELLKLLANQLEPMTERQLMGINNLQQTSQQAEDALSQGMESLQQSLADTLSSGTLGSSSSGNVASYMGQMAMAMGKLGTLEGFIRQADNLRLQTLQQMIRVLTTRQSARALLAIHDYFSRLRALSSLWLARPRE

Variants of: B1
Details: with tga2_arath TGA2, P43273

How did the “effect of a mutation on the interaction” value turn out when MDTTIDGFADSYEISSTSFVATDNTDSSIVYLAAEQVLTGPDVSALQLLSNSFESVFDSPDDFYSDAKLVLSDGREVSFHRCVLSARSSFFKSALAAAKKEKDSNNTAAVKLELKEIAKDYEVGFDSVVTVLAYVYSSRVRPPPKGVSEYADENCCHVACRPAVDFMLEVLYLAFIFKIPELITLYQRHLLDVVDKVVIEDTLVILKLANICGKACMKLLDRCKEIIVKSNVDMVSLEKSLPEELVKEIIDRRKELGLEVPKVKKHVSNVHKALDSDDIELVKLLLKEDHTNLDDACALHFAVAYCNVKTATDLLKLDLADVNHRNPRGYTVLHVAAMRKEPQLILSLLEKGASASEATLEGRTALMIAKQATMAVECNNIPEQCKHSLKGRLCVEILEQEDKREQIPRDVPPSFAVAADELKMTLLDLENRVALAQRLFPTEAQAAMEIAEMKGTCEFIVTSLEPDRLTGTKRTSPGVKIAPFRILEEHQSRLKALSKTVELGKRFFPRCSAVLDQIMNCEDLTQLACGEDDTAEKRLQKKQRYMEIQETLKKAFSEDNLELGNSSLTDSTSSTSKSTGGKRSNRKLSHRRR [C150Y] was run?
The value was “disrupting interaction”.
